{
  "source": "paper PMC12945441",
  "about": "(Science (New York, N.Y.), 2022)",
  "binders": {"B1": {"name": "S2X324 Fab fragment (Fab, V domains shown)", "VH": "QITLKESGPTLVKPTQTLTLTCTFSGFSVTTSGVGVGWIRQPPGKALEYLALIYWDDDKRYSTSLKSRLTITKDTSKNQVVLTMTNMDPVDTATYYCARHTIPSIFDYWGQGILVTVSS", "VL": "QPVLTQPASVSGSPGQSITISCTATSSDVGNYNYVSWYQHHPGKAPKLMIYEVSNRPSGVSNRFSGSKSGNTASLTISGLQAEDEADYYCSSYTSSSLLFGGGTKLTVL"}},
  "biological_target": "prefusion SARS-CoV-2 Omicron BA.1 S ectodomain trimer (SARS-CoV-2 Omicron BA.1 (B.1.1.529), strain)",
  "assay": "cryo-EM structure",
  "conditions": "both partners purified",
  "data": [
    {"binder": "B1", "values": [
      {"measurement": "stoichiometry N", "value": 3, "unit": "Fabs per S trimer"}
    ]}
  ]
}
